For two substances, stoichiometry N results are on record in publication PMC7467689.

By stoichiometry N is commonly meant a count of units in the complex or per binding partner.

In assay [1] the target is coat protein of ssRNA bacteriophage AVE016 (uncultured ssRNA bacteriophage AVE016 (metagenome-derived)). Kind of assay: crystal structure.
Assay [2] concerns the target coat protein of ssRNA bacteriophage EMS014 (uncultured ssRNA bacteriophage EMS014 (metagenome-derived)). Kind of assay: crystal structure.

Turning to “coat protein of ssRNA bacteriophage AVE016 (natural protein)”, the stoichiometry N in assay [1] is 210 CP monomers.

Turning to “coat protein of ssRNA bacteriophage EMS014 (natural protein)”, in assay [2], the stoichiometry N was determined as 2.
